Key:
[1] = molecular target: β chain of human hemoglobin with the N-terminal methionine, as expressed in E. coli before processing (human)
[2] = molecular target: α chain (α96Val→Trp) with the N-terminal methionine, as expressed in E. coli before processing (human)

E. coli methionine aminopeptidase (from UniProt P0AE18) (enzyme)
removal of the N-terminal methionine, electrospray mass spectrometry of the purified r Hb [1]: 90% | removal of the N-terminal methionine, electrospray mass spectrometry of the purified r Hb [2]: > 98%

— patent US5843888
